Experimental data published in the supplement of paper PMC7877785.
± gives the uncertainty stated by the source.

Assay: self-splicing fitness, log relative to wild type (ln ratio); higher = more splicing; Tetrahymena group I intron in knt gene, E. coli kanamycin selection, DiMSum; sequences stand for … in CUCUCU…GGAGGGAAAAGUUAUCAGGCAUGCACCUGGUAGCUAGUCUUUAAACCAAUAGAUUGCAUCGGUUUAAAAGGCAAGACCGUCAAAUUGCGGGAAAGGGGUCAACAGCCGUUCAGUACCAAGUCUCAGGGGAAACUUUGAGAUGGCCUUGCAAAGGGUAUGGUAAUAAGCUGACGGACAUGGUCCUAACCACGCAGCCAAGUCCUAAGUCAACAGAUCUUCUGUUGAUAUGGAUGCAGUUCACAGACUAAAUGUCGGUCGGGGAAGAUGUAUUCUUCUCAUAAGAUAUAGUCGGACCUCUCCUUAAUGGGAGCUAGCGGAUGAAGUGAUGCAACACUGGAGCCGCUGGGAACUAAUUUGUAUGCGAAAGUAUAUUGAUUAGUUUUGGAGUACUCGUGGUCG
Procedure, shortened: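 Six replicate transformations of E. coli BL21(DE3) with a pET-22b(+) library were grown overnight at 37°C or 30°C. The library randomised all eight P1ex-region intron nucleotides, the intron lying in the knt kanamycin-resistance gene, and plates were LB agar with or without 25 μg/mL kanamycin plus 100 μg/mL carbenicillin, 50 μM IPTG and 0.2% rhamnose. Pooled colonies were amplicon-sequenced on an Illumina HiSeq 2500, and fitness is the DiMSum error-weighted combination of wild-type-normalised replicate fold changes, kanamycin versus none.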

For CUUAAGCAAUAUUACGCGGA, the “self-splicing fitness (ln)” value (30 °C) was -1.74 ± 0.25 and the “self-splicing fitness (ln)” value (37 °C) was -2.58 ± 0.44.
For CUUAAGCAAUAUUACGGAUA, the “self-splicing fitness (ln)” value (30 °C) was -1.88 ± 0.36.
With CUUAAGCAAUAUUACGGCUA the “self-splicing fitness (ln)” value (30 °C) was -2.73 ± 0.45.
With CUUAAGCAAUAUUACGGCUG the “self-splicing fitness (ln)” value (30 °C) was -1.38 ± 0.13 and the “self-splicing fitness (ln)” value (37 °C) was -1.07 ± 0.17.
With CUUAAGCAAUAUUACGGGUG the “self-splicing fitness (ln)” value (30 °C) was -0.609 ± 0.049 and the “self-splicing fitness (ln)” value (37 °C) was 0.489 ± 0.07.
With CUUAAGCAAUAUUACGUAUU the “self-splicing fitness (ln)” value (30 °C) was -4.4 ± 0.31 and the “self-splicing fitness (ln)” value (37 °C) was -2.25 ± 0.23.
In the case of CUUAAGCAAUAUUACGUGAA, the “self-splicing fitness (ln)” value (30 °C) is reported as -2.87 ± 0.12 and the “self-splicing fitness (ln)” value (37 °C) is reported as -2.55 ± 0.29.
With CUUAAGCAAUAUUACGUGGA the “self-splicing fitness (ln)” value (30 °C) was -3.7 ± 0.18 and the “self-splicing fitness (ln)” value (37 °C) was -3.42 ± 0.16.
In the case of CUUAAGCAAUAUUACGUGGU, the “self-splicing fitness (ln)” value (30 °C) is reported as -4 ± 0.21 and the “self-splicing fitness (ln)” value (37 °C) is reported as -2.35 ± 0.2.
For CUUAAGCAAUAUUACGUGUA, the “self-splicing fitness (ln)” value (30 °C) was -3.17 ± 0.14 and the “self-splicing fitness (ln)” value (37 °C) was -2.64 ± 0.17.
For CUUAAGCAAUAUUACGUUAC, the “self-splicing fitness (ln)” value (30 °C) was -2.2 ± 0.19 and the “self-splicing fitness (ln)” value (37 °C) was -2.67 ± 0.34.
For CUUAAGCAAUAUUACGUUUA, the “self-splicing fitness (ln)” value (30 °C) was -2.81 ± 0.18 and the “self-splicing fitness (ln)” value (37 °C) was -2.6 ± 0.24.
In the case of CUUCAGCAAUAUUACGAAGA, the “self-splicing fitness (ln)” value (30 °C) is reported as -3.72 ± 0.4 and the “self-splicing fitness (ln)” value (37 °C) is reported as -2.33 ± 0.21.
With CUUCAGCAAUAUUACGAUAG the “self-splicing fitness (ln)” value (30 °C) was -0.458 ± 0.07 and the “self-splicing fitness (ln)” value (37 °C) was -0.818 ± 0.1.
In the case of CUUCAGCAAUAUUACGAUCA, the “self-splicing fitness (ln)” value (37 °C) is reported as -1.38 ± 0.32.
For CUUCAGCAAUAUUACGAUCG, the “self-splicing fitness (ln)” value (30 °C) was -0.136 ± 0.044 and the “self-splicing fitness (ln)” value (37 °C) was 0.234 ± 0.069.
For CUUCAGCAAUAUUACGCAAU, the “self-splicing fitness (ln)” value (30 °C) was -4.04 ± 0.37 and the “self-splicing fitness (ln)” value (37 °C) was -2.04 ± 0.3.
For CUUCAGCAAUAUUACGCCCA, the “self-splicing fitness (ln)” value (30 °C) was -1.53 ± 0.31 and the “self-splicing fitness (ln)” value (37 °C) was -0.354 ± 0.26.
With CUUCAGCAAUAUUACGCCCG the “self-splicing fitness (ln)” value (30 °C) was -0.156 ± 0.12 and the “self-splicing fitness (ln)” value (37 °C) was -0.17 ± 0.15.
With CUUCAGCAAUAUUACGCCGA the “self-splicing fitness (ln)” value (37 °C) was -2.47 ± 0.31.
With CUUCAGCAAUAUUACGCCUA the “self-splicing fitness (ln)” value (37 °C) was -2.38 ± 0.32.
For CUUCAGCAAUAUUACGCGAG, the “self-splicing fitness (ln)” value (30 °C) was -3.15 ± 0.2 and the “self-splicing fitness (ln)” value (37 °C) was -1.91 ± 0.2.
In the case of CUUCAGCAAUAUUACGCGGU, the “self-splicing fitness (ln)” value (30 °C) is reported as -2.21 ± 0.096 and the “self-splicing fitness (ln)” value (37 °C) is reported as -0.649 ± 0.095.
With CUUCAGCAAUAUUACGGCAA the “self-splicing fitness (ln)” value (30 °C) was -2.87 ± 0.48 and the “self-splicing fitness (ln)” value (37 °C) was -1.92 ± 0.41.
For CUUCAGCAAUAUUACGGCGC, the “self-splicing fitness (ln)” value (30 °C) was -3.07 ± 0.13 and the “self-splicing fitness (ln)” value (37 °C) was -3.29 ± 0.19.
In the case of CUUCAGCAAUAUUACGGCUU, the “self-splicing fitness (ln)” value (30 °C) is reported as -3.25 ± 0.16 and the “self-splicing fitness (ln)” value (37 °C) is reported as -3.2 ± 0.26.
In the case of CUUCAGCAAUAUUACGGGCU, the “self-splicing fitness (ln)” value (30 °C) is reported as -3.81 ± 0.27 and the “self-splicing fitness (ln)” value (37 °C) is reported as -2.83 ± 0.31.
For CUUCAGCAAUAUUACGUAAU, the “self-splicing fitness (ln)” value (30 °C) was -2.76 ± 0.13 and the “self-splicing fitness (ln)” value (37 °C) was -0.639 ± 0.1.
With CUUCAGCAAUAUUACGUACC the “self-splicing fitness (ln)” value (30 °C) was -2.36 ± 0.3 and the “self-splicing fitness (ln)” value (37 °C) was -2.12 ± 0.24.
In the case of CUUCAGCAAUAUUACGUCUU, the “self-splicing fitness (ln)” value (30 °C) is reported as -3.19 ± 0.16 and the “self-splicing fitness (ln)” value (37 °C) is reported as -3.67 ± 0.42.
With CUUCAGCAAUAUUACGUUAU the “self-splicing fitness (ln)” value (30 °C) was -3.2 ± 0.26 and the “self-splicing fitness (ln)” value (37 °C) was -2.14 ± 0.28.
In the case of CUUCAGCAAUAUUACGUUGA, the “self-splicing fitness (ln)” value (30 °C) is reported as -3.08 ± 0.25 and the “self-splicing fitness (ln)” value (37 °C) is reported as -2.85 ± 0.24.
In the case of CUUCAGCAAUAUUACGUUUG, the “self-splicing fitness (ln)” value (30 °C) is reported as -1.87 ± 0.082 and the “self-splicing fitness (ln)” value (37 °C) is reported as -1.24 ± 0.091.
In the case of CUUGAGCAAUAUUACGACAA, the “self-splicing fitness (ln)” value (37 °C) is reported as -2.84 ± 0.49.
In the case of CUUGAGCAAUAUUACGACGG, the “self-splicing fitness (ln)” value (30 °C) is reported as -1.97 ± 0.2 and the “self-splicing fitness (ln)” value (37 °C) is reported as -1.52 ± 0.26.
With CUUGAGCAAUAUUACGCAAU the “self-splicing fitness (ln)” value (30 °C) was -3.44 ± 0.32 and the “self-splicing fitness (ln)” value (37 °C) was -2.77 ± 0.38.
In the case of CUUGAGCAAUAUUACGCAGC, the “self-splicing fitness (ln)” value (30 °C) is reported as -2.02 ± 0.3 and the “self-splicing fitness (ln)” value (37 °C) is reported as -0.712 ± 0.28.
With CUUGAGCAAUAUUACGCAUA the “self-splicing fitness (ln)” value (30 °C) was -3.01 ± 0.36.
In the case of CUUGAGCAAUAUUACGCCAA, the “self-splicing fitness (ln)” value (30 °C) is reported as -3.52 ± 0.25 and the “self-splicing fitness (ln)” value (37 °C) is reported as -2.09 ± 0.32.
For CUUGAGCAAUAUUACGGGGC, the “self-splicing fitness (ln)” value (30 °C) was -3.82 ± 0.2 and the “self-splicing fitness (ln)” value (37 °C) was -0.729 ± 0.17.
With CUUGAGCAAUAUUACGGGGU the “self-splicing fitness (ln)” value (30 °C) was -3.14 ± 0.17 and the “self-splicing fitness (ln)” value (37 °C) was -3.37 ± 0.27.
In the case of CUUGAGCAAUAUUACGUACU, the “self-splicing fitness (ln)” value (30 °C) is reported as -4.15 ± 0.42 and the “self-splicing fitness (ln)” value (37 °C) is reported as -3.49 ± 0.39.
With CUUGAGCAAUAUUACGUAGG the “self-splicing fitness (ln)” value (30 °C) was -1.79 ± 0.15 and the “self-splicing fitness (ln)” value (37 °C) was -0.65 ± 0.15.
For CUUGAGCAAUAUUACGUCAA, the “self-splicing fitness (ln)” value (30 °C) was -3.45 ± 0.21 and the “self-splicing fitness (ln)” value (37 °C) was -2.19 ± 0.23.
For CUUGAGCAAUAUUACGUCGA, the “self-splicing fitness (ln)” value (30 °C) was -1.25 ± 0.24.
For CUUGAGCAAUAUUACGUGAU, the “self-splicing fitness (ln)” value (30 °C) was -4.13 ± 0.21 and the “self-splicing fitness (ln)” value (37 °C) was -1.96 ± 0.15.
For CUUGAGCAAUAUUACGUGGG, the “self-splicing fitness (ln)” value (30 °C) was -3.3 ± 0.38 and the “self-splicing fitness (ln)” value (37 °C) was -3.17 ± 0.27.
For CUUUAGCAAUAUUACGAACG, the “self-splicing fitness (ln)” value (30 °C) was 0.602 ± 0.16 and the “self-splicing fitness (ln)” value (37 °C) was 0.157 ± 0.19.
In the case of CUUUAGCAAUAUUACGAAUA, the “self-splicing fitness (ln)” value (30 °C) is reported as -3.48 ± 0.48.
In the case of CUUUAGCAAUAUUACGAAUG, the “self-splicing fitness (ln)” value (30 °C) is reported as 0.423 ± 0.14 and the “self-splicing fitness (ln)” value (37 °C) is reported as -0.306 ± 0.17.
For CUUUAGCAAUAUUACGAGUA, the “self-splicing fitness (ln)” value (30 °C) was -2.85 ± 0.22 and the “self-splicing fitness (ln)” value (37 °C) was -3.63 ± 0.42.
In the case of CUUUAGCAAUAUUACGAUUU, the “self-splicing fitness (ln)” value (30 °C) is reported as -2.66 ± 0.18 and the “self-splicing fitness (ln)” value (37 °C) is reported as -2.72 ± 0.3.
With CUUUAGCAAUAUUACGCCUG the “self-splicing fitness (ln)” value (30 °C) was -0.484 ± 0.11 and the “self-splicing fitness (ln)” value (37 °C) was -0.204 ± 0.14.
In the case of CUUUAGCAAUAUUACGCCUU, the “self-splicing fitness (ln)” value (30 °C) is reported as -2.77 ± 0.31 and the “self-splicing fitness (ln)” value (37 °C) is reported as -2.94 ± 0.43.
For CUUUAGCAAUAUUACGCGCA, the “self-splicing fitness (ln)” value (30 °C) was -2.5 ± 0.31 and the “self-splicing fitness (ln)” value (37 °C) was -1.77 ± 0.42.
With CUUUAGCAAUAUUACGCGCG the “self-splicing fitness (ln)” value (30 °C) was -1.05 ± 0.14 and the “self-splicing fitness (ln)” value (37 °C) was -0.656 ± 0.17.
In the case of CUUUAGCAAUAUUACGCUUU, the “self-splicing fitness (ln)” value (30 °C) is reported as -2.36 ± 0.36 and the “self-splicing fitness (ln)” value (37 °C) is reported as -1.45 ± 0.41.
In the case of CUUUAGCAAUAUUACGGAUC, the “self-splicing fitness (ln)” value (30 °C) is reported as -3.81 ± 0.35 and the “self-splicing fitness (ln)” value (37 °C) is reported as -1.53 ± 0.18.
In the case of CUUUAGCAAUAUUACGGCCA, the “self-splicing fitness (ln)” value (37 °C) is reported as -0.666 ± 0.5.
In the case of CUUUAGCAAUAUUACGGUCC, the “self-splicing fitness (ln)” value (37 °C) is reported as -1.77 ± 0.32.
For CUUUAGCAAUAUUACGUGCG, the “self-splicing fitness (ln)” value (30 °C) was -2.29 ± 0.14 and the “self-splicing fitness (ln)” value (37 °C) was -1.12 ± 0.12.
With CUUUAGCAAUAUUACGUGGC the “self-splicing fitness (ln)” value (37 °C) was -2.47 ± 0.44.
With CUUUAGCAAUAUUACGUUUC the “self-splicing fitness (ln)” value (37 °C) was -2.15 ± 0.23.
With GAAAAGCAAUAUUACGAGAA the “self-splicing fitness (ln)” value (30 °C) was -3.21 ± 0.48 and the “self-splicing fitness (ln)” value (37 °C) was -1.11 ± 0.23.
